Assay results: the PETadex activity labels (doi:10.3390/molecules28083528)
Residue numbers refer to the chain shown, from its start.

B1: unnamed (protein)
chain: MAVGSMLLSMAAQAQVVVFEETFSTGLGKFTAAGSVVTSSGAARLDGCYGCTDGSITSTAISTVDFTGLRLSFDRVTSGLDSGEAGIAEFSTNGSTYTAVESIRTASGRVTFNLPTSAENQSGLRLRFRINASLSSETYTVDNIRLEGTSGSGGGTTNPFEKGPDPTKTMLEASTGPFTYTTTTVSSTTASGYRQGTIYHCTNVTGPFAAVAVVPGYLASQSSINWWGPRLASHGFVVITIDTNSTSDQPPSRATQLMAALNQLKTFSNTSSHPIYRKVDPNRLGVMGWSMGGGGTLIAARDNPTLKAAIPFAPWNSSTNFSTVSVPTLIIACESDSTAPVNSHASPFYNSLPSTTKKAYLEMNNGSHSCANSGNSNAGLIGKYGVSWMKCFMDNDTRFSPYLCGAPHQADLSLTAIDEYRENCPY
B2: unnamed (protein)
chain: B1 chain with C201P, N364C, C391R, D411C
B3: unnamed (protein)
chain: B1 chain with C201P, C391R

Substrate: BHET
Test: Proxy for plastic degradation [Released monomer concentration (HPLC/LC-MS) (TPA+MHET)]
Conditions: pH 7; 30 °C

Point of comparison: B2, “Proxy for plastic degradation” value 28.8 µM. Against it:
- B1 — 1.5-fold lower, 19.1 µM

Same assay, conditions: pH 7; 40 °C

Point of comparison: B1, “Proxy for plastic degradation” value 19.5 µM. Against it:
- B2 — 1.6-fold higher, 31.2 µM

Same assay, conditions: pH 7; 50 °C

Point of comparison: B2, “Proxy for plastic degradation” value 37.6 µM. Against it:
- B1 — 1.9-fold lower, 20.2 µM

Same assay, conditions: pH 9; 30 °C

Point of comparison: B1, “Proxy for plastic degradation” value 19.6 µM. Against it:
- B2 — within 1.5-fold, 28.9 µM

Same assay, conditions: pH 9; 40 °C

Point of comparison: B1, “Proxy for plastic degradation” value 37.1 µM. Against it:
- B2 — within 1.5-fold, 43.2 µM

Same assay, conditions: pH 9; 50 °C

Point of comparison: B1, “Proxy for plastic degradation” value 55 µM. Against it:
- B2 — within 1.5-fold, 66.1 µM

Substrate: PET
Test: Proxy for plastic degradation [Released monomer concentration (HPLC/LC-MS) (MHET+TPA)]
Conditions: pH 9; 30 °C; 1 h

Point of comparison: B1, “Proxy for plastic degradation” value 2.3 µM. Against it:
- B2 — 5.3-fold higher, 12.1 µM

Same assay, conditions: pH 9; 30 °C; 2 h

Point of comparison: B2, “Proxy for plastic degradation” value 22.4 µM. Against it:
- B1 — 5.9-fold lower, 3.8 µM

Same assay, conditions: pH 9; 30 °C; 3 h

Point of comparison: B2, “Proxy for plastic degradation” value 33.3 µM. Against it:
- B1 — 21-fold lower, 1.6 µM

Same assay, conditions: pH 9; 30 °C; 4 h

Point of comparison: B1, “Proxy for plastic degradation” value 5.4 µM. Against it:
- B2 — 8.2-fold higher, 44.1 µM

Same assay, conditions: pH 9; 30 °C; 5 h

Point of comparison: B2, “Proxy for plastic degradation” value 64.8 µM. Against it:
- B1 — 14-fold lower, 4.6 µM

Same assay, conditions: pH 9; 30 °C; 6 h

Point of comparison: B1, “Proxy for plastic degradation” value 4.9 µM. Against it:
- B2 — 15-fold higher, 72.1 µM

Same assay, conditions: pH 9; 40 °C; 1 h

Point of comparison: B1, “Proxy for plastic degradation” value 0.84 µM. Against it:
- B2 — 29-fold higher, 24.3 µM

Same assay, conditions: pH 9; 40 °C; 2 h

Point of comparison: B1, “Proxy for plastic degradation” value 3 µM. Against it:
- B2 — 14-fold higher, 43.4 µM

Same assay, conditions: pH 9; 40 °C; 3 h

Point of comparison: B2, “Proxy for plastic degradation” value 59.5 µM. Against it:
- B1 — 14-fold lower, 4.3 µM

Same assay, conditions: pH 9; 40 °C; 4 h

Point of comparison: B1, “Proxy for plastic degradation” value 8.2 µM. Against it:
- B2 — 7.1-fold higher, 58 µM

Same assay, conditions: pH 9; 40 °C; 5 h

Point of comparison: B2, “Proxy for plastic degradation” value 101 µM. Against it:
- B1 — 13-fold lower, 8 µM

Same assay, conditions: pH 9; 40 °C; 6 h

Point of comparison: B1, “Proxy for plastic degradation” value 9.8 µM. Against it:
- B2 — 11-fold higher, 104 µM

Substrate: PET
Test: Proxy for plastic degradation [Released monomer concentration (HPLC/LC-MS) (Not Mentioned)]
Conditions: pH 9; 1 h

Point of comparison: B1, “Proxy for plastic degradation” value 2.3 µM. Against it:
- B3 — 2.6-fold higher, 6 µM

Same assay, conditions: pH 9; 2 h

Point of comparison: B1, “Proxy for plastic degradation” value 3.8 µM. Against it:
- B3 — 2.3-fold higher, 8.6 µM

Same assay, conditions: pH 9; 3 h

Point of comparison: B3, “Proxy for plastic degradation” value 12.8 µM. Against it:
- B1 — 8-fold lower, 1.6 µM

Same assay, conditions: pH 9; 4 h

Point of comparison: B3, “Proxy for plastic degradation” value 11.8 µM. Against it:
- B1 — 2.2-fold lower, 5.4 µM

Same assay, conditions: pH 9; 5 h

Point of comparison: B1, “Proxy for plastic degradation” value 4.6 µM. Against it:
- B3 — 3.2-fold higher, 14.5 µM

Same assay, conditions: pH 9; 6 h

Point of comparison: B3, “Proxy for plastic degradation” value 15 µM. Against it:
- B1 — 3.1-fold lower, 4.9 µM
